# Values joined by “and” are separate entries in the source; they are usually repeats but may differ in a detail not shown here. Identical values can stand only once.
# Tested on: Bacillus subtilis DB104 (SP-AmyQ fusion secretion)
# Experiment: AmyQ secretion efficiency, weighted average sort bin (1 = best secretion, 10 = worst) (bin number (weighted average, 1-10)); higher = lower secretion efficiency
# In short: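 A B. subtilis DB104 library carrying amyE-integrated fusions of designed signal peptides to mature AmyQ was encapsulated at about 0.3 cells per ~65 nL alginate bead with fluorescein-starch and grown about 13 h at room temperature. Following nile red staining, occupied beads were flow-sorted as large particles into 10 equally populated bins by green/red fluorescence ratio, and the bin amplicons were Illumina-sequenced. The secretion score is the read-frequency-weighted average bin number normalised to beads per bin, leaving out low-abundance sequences.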
row,Sequence,AmyQ secretion efficiency
1,MKKAFLVFLSVVLVTTVFLVKQQESVAQPKQL,4.94
2,MKQIMIFLTSFMLLAMTGTTALAKDV,3.67
3,MKQFAITLSVLCALILLVPTLLVIPRRKKRHKKEAGASV,5.51
4,MPIKKKVMMCLAVTLVFGSMSFPTLTNSGGFPE,5.65
5,MLCVMMLLFSAIASFPVSTQAKDQ,5.3
6,MKKIVSILFMFGLVMFFFTFTAIGVFAADK,4.52
7,MKRLLSTLLIGIMLLTFAPSAFAAED,2.37
8,MRKRKRRLILSAVLFLSCFFGARQTEASASKR,2.98
9,MMMLRKIIGWILLLCIIPLFAFTVIASGKEV,5.45
10,MIAYFGKCLLLVTIMFLGVLFGMSQANHG,4.69
11,MTKRGIQAFAGGIILATAVLAAVFRLTTFDQAAAV,5.37
12,MKRLLSTLLIGIMLLTFAPSAFAKKR,2.03
13,MLTLRTLCVLMILSGVIFFGLKIDAKDI,6.18
14,MLCVMMLLFSAIASFPVSMQAKDQ,5.6
15,MPYLKRVLLLLVTGLFMSLFRKRRKRASAQTG,6.94
16,MNLRKILLSSALSLGMLVSAAPVLETSS,7.05
17,MKKKLAAGLTASAIVGTTLVVTPAEWATI,7.78
18,MPYLKRLSIVLLLLVTGLFMSLFAVTATASAQTG,1.6
19,MKWMCSICCAAVLLAGRRRRRKAQAEAV,6.72
20,MRNLTKTSLLLAGLCTAAQMVFVTHVSAEES,3.09
21,MSVMTTMLLSTAAGLLLSLTATSVSAHYV,4.5
22,MKNMSCKLVVSVTLFFSFLTIGPLVFPFAHAQNS,4.97
23,MKKLLAAGIIGLLTVSIASPSFRAEK,7.12
24,MLCVMMLLFSAIASFPVSEQAKDQ,4.62
25,MKKIGLLFMLCLAALFTIGFPAQQADAAPR,1.25
26,MAIIIAIIAAVIVIAALITFNVMNASPG,6.23

row,Sequence,AmyQ secretion efficiency
1,MFKFKKNFLVGLSAALMSIKKKKRRASAAST,7.19
2,MKKAAAVLLSLGLVFGFSYGAGHVREAKTK,7.77
3,MKRKLLSSLAISALSLGLLVSAPTAWFAAES,9.22
4,MLGKIALTLCPAIVGSLLFFTAPASAHVS,2.47
5,MKTLRSRCYKGILSGVIFFGLKIDAKDI,6.82
6,MNMSITYSLLALLAVVAFAFTDSSKAKAAEA,2.51
7,MKSKWMSGLLLVAVGFSFTQVMVHIGET,5.32
8,MKWMCSICCAAVLLAGGASFFGTFGPGTTAQAEAV,4.06
9,MKKWMITIAMLILAGIALFVFISPRKSHKT,4.44
10,MKLAKRVSALTPSTTLAITYKAKEL,6.96
11,MNKRFFGPIILAFILFAGAIAIPS,7.33
12,MKRSISIFITCLLITLLTMGGMIASPASAAGT,3.79 and 2.48 and 2.42
13,MSGTTSIILFSTLALAAGMTAAAAGGAGTIHAQQP,3.5
14,MKLAKRVSALTPSTTLAITQKAKEL,5.63
15,MKKVMLATALFLGLTPANAADL,8.14
16,MGMKKKSRTGVASAALGLALVGGGTWAAFN,5.34
17,MLKKKWMVGLLAGCLAAGGFSYNGFATEN,6.08
18,MFKFKKNFLVGLSAALMSIEDEEDDASAAST,6.33
19,MKLSVKIAGVLTVAAAAMTAKMYATEKGN,4.74
20,MKVCQKSIVRSQRSLIIGTFVISVPFMANAQSD,5.65
21,MFKKHTISLLIIFLLASAVLAKPIEAHTD,1.8
22,MRSKKLWISLLFALTLITLLVAFTMAFSNMSAQAAGK,7.19
23,MKLKKRVSMFRKKKRKCGGLFVTPAKAVKT,7.44
24,MSNMSCMLVVSVTLFFSFLTIGPLAHAQNS,1.7
25,MNFKKTVVSALSISALALEPSGVASAHEI,2.95
26,MLTKRLLTIYIMLLGLIAWFPGAAQCEEK,2.82

row,Sequence,AmyQ secretion efficiency
1,MKKWIYTVLVLSIAGIGGFSVHAASS,6.39
2,MKKWMITIAMLILAGIALFVFIDPLKSHKT,6.61
3,MMIKQCKRCKKRKVFGTTAAHAEET,7.72
4,MKRIRIPMTLALGAALTIAPLSFASREEN,6.16
5,MKWMCSICCAAVLLAGGAFQAEAV,4.41
6,MLKKIALTLCPAIVGSLLFFTAPCSAHVS,3.32
7,MKSKGSIMACLILFSFTITTFINTETGSAFSN,5.58
8,MLKKKWMVKKKRRCKAAGGFSYNAFATEN,7.54
9,MKKLLAAGIIGLLTVSIASPSFLAEK,5.65
10,MKLSVKIAGVLTVAAAAMTAKMYATQKGN,7.51
11,MKKKQVMLALTAAAGLGLTALHSAPAAKVAPL,6.92
12,MNLRKILLFIALFLMMLTVSAAPVLATSS,1.67
13,MGLGKKLSVAVAASFMSLSISLSPGVQAAEG,1.19
14,MKKRLIAPMLLSAASLAFFAMSGSAQAEED,2.35
15,MKWMCSICCAAVLLAGGAAQIEAV,2.05
16,MKKFLVSLIIGTFVISVPFMANAQSD,1.69
17,MKKTIMSFKRKKALSTTAFGAHASAKEI,7.79
18,MKRYRQKCLLLVTIMFLGVLFGMQQANHG,5.69
19,MHLIRAAGAVCLAVVLIAGCRFNEDQHQAEGENT,5.94 and 6.42
20,MKLWMRKTLVVLFTIVTFGLVSPPALMADKP,1.9
21,MKRIRIPMTLALGAALTIAPLSFKSAEEN,6.9
22,MKKIMSARKRRRKLTIFCFSPQASAAYD,6.63
23,MRFTKVVGFLSVLGLAADEDLTAQAEKA,3.78
24,MRNLTKTSLLLAGLCTAAQMVFVTHISAEES,3.9
25,MKKRLIGFLVLVPALIMSGITLIESNKK,5.98
26,MKKLKRKKVILGALGTSYISADSS,7.53

row,Sequence,AmyQ secretion efficiency
1,MRKKCSVCKKRRKRLLSCLSGKSAYAATS,7.64
2,MRRKKRKVVGFLSVLGLAAVFPLTAQAEKA,2.12
3,MKNMSCKLVVSVTLFFSFLTIGPLAHYQNS,6.66
4,MFTFSGSMFLVGLSAALMSISLFSATASAAST,1.64
5,MKKVLMAFIICLSLILSVLAAPPSGKKAESV,8.34
6,MRPVFPLILSAVLFLSCFRGARQTKASASKR,7.54
7,MKKRLIAPMLLSAASLAFFAMSGSCQAAAY,2.58
8,MHLIRAAGAVCLAVVLIAGCRFNEDQAEGENT,5.78
9,MKKFIFNMFIGLLFMLCLAALFTIGFPAQQADAAEA,2.9
10,MKKWLRRAVSLAIAIVLFMYTKGEAKAAGM,2.72
11,MKKIMSGKKGMVLLTIFCFSPQASAAYD,5.2
12,MKIRKILLSSALSFGMLEDEVPALAAGT,2.62
13,MKRRKTAYLLLGILCSAAVFLIGAPSRALGAEV,2.77
14,MKRTWNVCLTALLSVLLVAGSVPFHMEAKKP,2.19
15,MKKAFILSAAAAVGLFTFIAVSVASAKEL,3.67
16,MRKKRVITCVMAASPAGYASAKED,7.41
17,MAIIIAIIAAVIVIAALITFNVWNASPG,7.05
18,MLKKIALTLCPAIVGSLLFFTAPASADEE,3.58
19,MRGKSAVLLSLIMLIAGFLISFMFQM,7.73
20,MKKRLIGFLVLVPALIMSGITLIELNKK,6.99
21,MKKSQYFIVFICFFVLFSVHPIAQAAADS,4.87
22,MKKWIYVVLVLSIAGIGGFSVHGASS,7.27
23,MLCVMMLLFSAIASFPVSVQAKDQ,3.83
24,MKKWMITIAMLILAGIALFVFISPIKSHKT,6.77
25,MKTLRTLCVLMILSGVIFFGLKIDVKDI,6.52
26,MKKRITYSLLALLAVVAFAFTDSSKTKAAEA,4

row,Sequence,AmyQ secretion efficiency
1,MKRFLIGAGVAAVILSGWFIADHQFHSQEM,5.93
2,MGLGKKLSVAVAASFMSLSISLPGVQCAEG,2.75
3,MFKFKKNFRKKRSAALMSISLFSATASAAST,4.73
4,MKKSQYGGQTFGLVMGFSQFQPSTVFAADK,6.36
5,MKKGIIRFLLVSFVLFFALSTGITGVQAAPD,2.73
6,MLKKKWMLMVGLLAGCLAAGGFSYNAFATEN,4.46
7,MKRITINIITMFIAAAVISLTGTAEAASS,2.16
8,MRKYTVKRSILLSFLSVLSGGHHESKAFPV,6.95
9,MKKRKKKSLLALLAVVAFAFTDSSKAKAAEA,2.95
10,MKKWMAGLFLAAAVLLCLLVTSLMVPQQIQGASS,4.31
11,MRKKTKNRLISSVLSTVVISSLLFPGAAFAGASSK,1.5
12,MNKKYFVLIVCIIFTSALFPTFSSVTCAQG,1.06
13,MTMLRKIIGWILLLCIIPLFAFTVIASGAED,6.01
14,MKKKQVSHAIIISVMLSFVIAVFHTIHASYLTP,6.98
15,MLKKKWMVGLLAGCLAAGGFSYNCFATEN,3.91
16,MMKKLFHSTLIVLLFFSFFGVQPIHAAED,3.19
17,MPYLKRVLLLLVTGLFMSLFAVTATISAQTG,1.51
18,MLKKKWMVGLLAGCLAAGGAFATEN,6.32
19,MKLKSKLLLSCLALSTVFVLFSTATTIANAPTH,4.84
20,MKVLLSALLLLLFAFEPSNSGKKL,6.02
21,MKRTWNVCLTALLSVLLVAGSVDDHAEAKKP,1.97
22,MTKKAWFLPLVCVLLISGWLAPAASASFQTT,2.38
23,MRNLTKTSLLLAGLCTAAQMVFVTHGSAEES,4.68
24,MPYLKRKGYQYQSGLFMSLFAVTATASAQTG,4.4
